Measured values published in patent US20250041379A1, “METHODS AND COMPOSITIONS FOR THE TREATMENT OF CANCER” (Vigeo Therapeutics, Inc., priority 2021, published 2025).
No end group written: not given here.

What was measured:
Assay type in all cases: in vivo, human
subjects with rGBM = assay: Phase I/II clinical study (NCT03364400): adverse events in subjects with recurrent GBM
Experimental: VT1021 was evaluated in a recently completed phase I/II open-label, multicenter, dose escalation (Part 1) and expansion (Part 2) clinical study in advanced, refractory, solid tumors including recurrent GBM (rGBM) (NCT03364400). Thirty-two subjects with rGBM were dosed in Part 2, 22 of which were considered evaluable as having completed ≥1 cycle of VT1021 treatment and tumor imaging during cycle 2. […]

TSP-1 [1] = assay: TSP-1 protein by ELISA in peripheral blood mononuclear cells of rGBM subjects; conditions: all evaluable subjects with rGBM
Excerpt: (§1) FIG. 10 is a chart showing that VT1021 induces TSP-1 in the circulation and the TME. (A) Bar graph of Tsp-1 protein levels measured by ELISA in circulating MDSCs collected prior to (baseline) and after (induction) treatment with VT1021 from patients who experienced complete or partial response, stable disease, or progressive disease; (B) H&E and immunohistochemical analysis of patient tumor tissue prior to onset (pre) or during treatment with VT1021; (C) Immunohistochemical analysis depicting representative images of high levels of CD36 and CD47.
(§2) The blood samples were collected from GBM subjects in the expansion phase, who were treated by VT1021 at 11.8 mg/kg, twice weekly, by IV infusion. VT1021 levels were measured and analyzed among male and female subjects (FIG. 7). […] CD36 and CD47 levels have been measured by immunohistochemistry assays in the pre-treatment tumor biopsy samples of the GBM subjects (FIG. 9, FIG. 10). Levels of Tsp-1 were measured by ELISA for circulating Tsp-1 levels in the collected blood samples, and by immunohistochemistry for the level of Tsp-1 accumulated in the tumor biopsy samples (FIG. 10). The infiltration of immune and inflammatory cells, specifically, MDSCs, T cells and macrophages, were determined by immunohistochemical analysis of the levels of cell surface markers in the tumor biopsy samples of subjects (FIG. 11).

[2] = test system: tumor microenvironment (TME) in rGBM; assay: IHC and multiplex ion beam imaging of immune cells in rGBM tumor biopsy pair; conditions: rGBM subject with CR
Excerpt: FIG. 11C is a bar graph of the change in the percentage of M1 and M2 macrophages in patient tumor tissue as determined by metal ion immunostaining.
FIG. 11E is a bar graph depicting the fold-change in cytotoxic T lymphocytes (CTLs) in patients prior to the onset of treatment with VT1021 (pre-treatment) and during treatment with VT1021 (On-Study) as determined by metal ion immunostaining.
FIG. 11F is a bar graph depicting the fold-change in total and monocytic myeloid derived suppressor cells (MDSCs) in patients prior to the onset of treatment with VT1021 (pre-treatment) and during treatment with VT1021 (On-Study) as determined by metal ion immunostaining.
as §2, with “7). Days on study have been collected from the same group of subjects (FIG. 8).” for “7).”
FIG. 11A, FIG. 11B, FIG. 11C, FIG. 11D, FIG. 11E, and FIG. 11F are charts showing modulation of the immune system by VT1021 in circulation and in the TME. […] Proliferating CTLs increased ≥1.5 fold regardless of clinical response, proliferating helper T cells increased ≥1.5 fold in CR/PR and PD subjects while monocytic MDSCs (mMDSCs) and activated MDSCs decreased≤0.5 fold in all evaluable subjects. […] Percent of M1 increased 1.9-fold while M2 decreased 0.6-fold after treatment. […] CTLs increased >4 fold while total and mMDSCs […] >15 fold in the on-study biopsy compared to pre-treatment.

[3] = VT1021 concentration in plasma (pharmacokinetic profile) in the clinical study; conditions: phase I/II study
Excerpt: FIG. 2 is a chart showing the pharmacokinetic profile of VT1021 concentration in the plasma of human patients with glioblastoma (red), pancreatic cancer (green), ovarian cancer (blue), other (purple) or not reported (red) over time following the initial administration at time 0. “Others” and “Not reported” refer to subjects enrolled in the clinical trial with solid tumor indications other than GBM, Panc, and Ovarian cancers.
FIG. 7 is a chart showing the pharmacokinetic profile of VT1021 concentration in the plasma of male (solid line) and female (dotted line) glioblastoma patients over time following the initial administration at time 0.
In the “expansion stage” of the VT1021-01 Study, subjects diagnosed with recurrent GBM, pancreatic cancer, ovarian cancer and other solid tumors were enrolled. […] The correlation between days on study and tumor shrinkage versus expression profile of CD36 and CD47 was analyzed (FIG. 4). The general expression profile of CD36 and CD47 has been assessed by IHC on Tumor Tissue Microarrays (TMAs), which contain biopsy samples collected from pancreatic cancer patients. […]
The blood samples were collected from GBM subjects in the expansion phase, who were treated by VT1021 at 11.8 mg/kg, twice weekly, by IV infusion. VT1021 levels were measured and analyzed among male and female subjects (FIG. 7). […]

TSP-1 [4] = assay: Immunohistochemistry and pathological examination of pre-treatment and on-study rGBM tumor biopsy; conditions: subject with rGBM who achieved CR
Excerpt: as §1, §2

[5] = GBM, 32 Subjects, all cycles, maximum grade, regardless of causality
[6] = on-study biopsy vs pre-treatment, multiplex ion beam imaging, increased

With “cyclic DWLPK (also: cyclic, mode of cyclisation not given here) [VT1021, 5-amino acid cyclic peptide from prosaposin; Tsp-1-inducing agent]” the “Abdominal Pain (AE), All Grades” value (subjects with rGBM; [5]) was 5, the “Abdominal Pain (AE), Grade 1-2” value (subjects with rGBM; [5]) was 5 and the “Diarrhea (AE), All Grades” value (subjects with rGBM; [5]) was 4. For the same substance, the “Diarrhea (AE), Grade 1-2” value (subjects with rGBM; [5]) was 4, the “Fall (AE), All Grades” value (subjects with rGBM; [5]) was 9 and the “Fall (AE), Grade 1-2” value (subjects with rGBM; [5]) was 9. For the same substance, the “Infusion reaction (AE), All Grades” value (subjects with rGBM; [5]) was 3, the “Infusion reaction (AE), Grade 1-2” value (subjects with rGBM; [5]) was 3 and the “Nausea (AE), All Grades” value (subjects with rGBM; [5]) was 3. For the same substance, the “Nausea (AE), Grade 1-2” value (subjects with rGBM; [5]) was 3, the “Vomiting (AE), All Grades” value (subjects with rGBM; [5]) was 3 and the “Vomiting (AE), Grade 1-2” value (subjects with rGBM; [5]) was 2. For the same substance, the “Vomiting (AE), Grade 3-4” value (subjects with rGBM; [5]) was 1, the “major adverse events (AEs)” value (subjects with rGBM; phase I/II study, solid tumors including rGBM) was “no major adverse events” and the “TSP-1 protein in peripheral blood mononuclear cells (PBMCs)” value (TSP-1 [1]) was “induced”. For the same substance, the “M2 macrophages, fold change” value ([2]; biopsy pair pre-treatment vs on-study, decreased) was 0.6 fold, the “Percent of M1 macrophages, fold change” value ([2]; biopsy pair pre-treatment vs on-study, increased) was 1.9 fold and the “CTLs, fold change” value [2, 6] was greater than 4 fold. The “mMDSCs, fold change” value [2, 6] was greater than 15 fold, the “total MDSCs, fold change” value [2, 6] was greater than 15 fold and the pharmacokinetic profile ([3]; solid tumors including pancreatic cancer) was “predictable”. The pharmacokinetic profile ([3]; solid tumors including rGBM) was “predictable”, the “TSP-1 in the on-study biopsy” value (TSP-1 [4]) was “TSP-1 induction” and the “tumor cells by pathological examination of the on-study biopsy” value (TSP-1 [4]) was “No tumor cells were detected”.
